Data as given in PMC11430399, “Cold-induced degradation of core clock proteins implements temperature compensation in the Arabidopsis circadian clock” (Science Advances, 2024).

Target: T1, LOV KELCH PROTEIN 2 fused with GFP (LKP2-GFP) (Arabidopsis thaliana, UniProt Q8W420 1-611)
T1 construct: LKP2, Arabidopsis thaliana, AT2G18915; Own promoter-driven genomic LKP2; source: Arabidopsis 35Sp:PRR5-F/lkp2-cr3/LKP2-GFP transgenic seedlings, in protein extract
Test: co-IP; LKP2-GFP immunoprecipitated with anti-GFP antibodies from 35Sp:PRR5-F/lkp2-cr3/LKP2-GFP seedlings kept at 12° or 28°C for 24 hours with MG132; PRR5-FLAG detected by Western blot; three biological replicates
Settings: partners not purified

T1 sequence (Q8W420 whole entry, the tested form may be a part): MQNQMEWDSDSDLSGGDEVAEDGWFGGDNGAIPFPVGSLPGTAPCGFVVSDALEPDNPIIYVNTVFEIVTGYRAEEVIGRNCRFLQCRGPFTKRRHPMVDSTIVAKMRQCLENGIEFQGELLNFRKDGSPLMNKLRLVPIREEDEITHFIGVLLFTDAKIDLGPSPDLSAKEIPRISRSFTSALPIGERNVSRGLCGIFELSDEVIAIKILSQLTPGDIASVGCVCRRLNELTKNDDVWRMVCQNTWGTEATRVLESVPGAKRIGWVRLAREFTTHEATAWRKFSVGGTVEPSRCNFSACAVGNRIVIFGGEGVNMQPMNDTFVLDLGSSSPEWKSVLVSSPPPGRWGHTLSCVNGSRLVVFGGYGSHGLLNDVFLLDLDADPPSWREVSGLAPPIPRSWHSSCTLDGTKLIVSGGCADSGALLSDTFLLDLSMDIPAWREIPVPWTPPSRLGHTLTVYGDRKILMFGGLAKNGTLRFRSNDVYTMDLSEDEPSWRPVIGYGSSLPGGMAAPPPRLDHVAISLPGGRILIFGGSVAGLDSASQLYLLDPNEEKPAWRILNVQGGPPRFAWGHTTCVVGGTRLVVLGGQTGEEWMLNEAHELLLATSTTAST

B1: PSEUDO-RESPONSE REGULATOR 5 with a C-terminal triple FLAG tag (PRR5-FLAG) (natural protein, Arabidopsis thaliana, UniProt Q6LA42 1-558, looked up)
chain: MTSSEEVVEVTVVKAPEAGGGKLSRRKIRKKDAGVDGLVKWERFLPKIALRVLLVEADDSTRQIIAALLRKCSYRVAAVPDGLKAWEMLKGKPESVDLILTEVDLPSISGYALLTLIMEHDICKNIPVIMMSTQDSVNTVYKCMLKGAADYLVKPLRRNELRNLWQHVWRRQTSLAPDSFPWNESVGQQKAEGASANNSNGKRDDHVVSGNGGDAQSSCTRPEMEGESADVEVSARDAVQMECAKSQFNETRLLANELQSKQAEAIDFMGASFRRTGRRNREESVAQYESRIELDLSLRRPNASENQSSGDRPSLHPSSASAFTRYVHRPLQTQCSASPVVTDQRKNVAASQDDNIVLMNQYNTSEPPPNAPRRNDTSFYTGADSPGPPFSNQLNSWPGQSSYPTPTPINNIQFRDPNTAYTSAMAPASLSPSPSSVSPHEYSSMFHPFNSKPEGLQDRDCSMDVDERRYVSSATEHSAIGNHIDQLIEKKNEDGYSLSVGKIQQSLQREAALTKFRMKRKDRCYEKKVRYESRKKLAEQRPRIKGQFVRQVQSTQAP
notes: PRR5, Arabidopsis thaliana; source: Arabidopsis 35Sp:PRR5-F transgenic seedlings (also 35Sp:PRR5-F/lkp2-cr3/LKP2-GFP), in protein extract; not shown: 3xFLAG, C-terminal, kept
  fold of co-immunoprecipitated PRR5-FLAG at 12°C against 28°C: 15.9 fold
